Patent US20020137055, “Method and apparatus for measurement of the effect of test compounds on signal transduction at the level of biological receptors” (published 2002)

What was measured:
Settings in all cases: protein: extract; tags: Cy5-labelled; expressed as ubiquitin fusion in Saccharomyces cerevisiae AF103 (YEpE10 plasmid); yeast extract preparation
[1] = molecular target: T1, human estrogen receptor (recombinant hER, 65 kDa) (Homo sapiens, UniProt P03372 P03372:1-595); assay: evanescent fiber optic sensor; with 1e-6 M zearalenone; control 3.51
T1 sequence (P03372 whole entry, one chain of several): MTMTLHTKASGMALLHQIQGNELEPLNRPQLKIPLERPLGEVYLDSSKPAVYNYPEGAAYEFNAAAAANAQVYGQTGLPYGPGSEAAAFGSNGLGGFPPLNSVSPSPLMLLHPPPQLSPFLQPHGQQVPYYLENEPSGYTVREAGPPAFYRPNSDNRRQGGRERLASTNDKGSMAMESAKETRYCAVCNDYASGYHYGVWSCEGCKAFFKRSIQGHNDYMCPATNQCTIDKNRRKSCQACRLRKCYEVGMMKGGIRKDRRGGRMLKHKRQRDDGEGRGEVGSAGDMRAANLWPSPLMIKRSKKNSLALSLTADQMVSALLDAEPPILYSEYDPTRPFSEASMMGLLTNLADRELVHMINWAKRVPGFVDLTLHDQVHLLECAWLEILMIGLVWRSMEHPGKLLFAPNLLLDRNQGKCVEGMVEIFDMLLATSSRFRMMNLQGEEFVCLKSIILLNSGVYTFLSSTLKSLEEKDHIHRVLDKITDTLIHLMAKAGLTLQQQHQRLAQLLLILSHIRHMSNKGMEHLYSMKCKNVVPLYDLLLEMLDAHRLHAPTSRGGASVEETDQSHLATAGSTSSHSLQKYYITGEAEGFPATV
Protocol: (§1) This solution comprised said calibration standard of component 6a. […] This receptor preparation was used as the calibration solution. Immediately after preparation it was pipetted in 135 μl aliquots into microcentrifuge tubes, snap frozen and stored at −80° C. They were not thawed again until they were used with the fiber sensor. Sample solutions of component 6a were similarly prepared, except that the dilution at the end with receptor buffer gave a total receptor concentration of […]. If the solution was to be used with an ERE fiber (component 1a type 2), then polydeoxyinosinic-deoxycytidylic acid sodium salt was added to the receptor buffer to prevent nonspecific binding to the ERE fiber. Solutions containing 4.4×10⁻¹⁰ M Cy5-tagged-estrogen-receptor solution and in addition to a predetermined amount of estrogen or estrogen mimic were created to test the impact of said estrogen or estrogen mimic.
(§2) 12) Using fiber sensors of component 1a type 2, and the foregoing procedure the S/C value was calculated for several different estrogens tested at 10⁻⁶ M concentration.

[2] = molecular target: T1, human estrogen receptor (recombinant …); assay: evanescent fiber optic sensor; with 1e-6 M diethylstilbestrol; control 3.51
Protocol: as §1, §2

[3] = molecular target: T1, human estrogen receptor (recombinant …); assay: evanescent fiber optic sensor; control, no ligand; 4.4e-10 M receptor; 500 mM KCl phosphate pH 7.5, poly(dI-dC)
Protocol: as §1, §2

[4] = molecular target: T1, human estrogen receptor (recombinant …); assay: evanescent fiber optic sensor; with 1e-6 M estrone; control 3.51
Protocol: as §1, §2

B1: ERE (Xenopus vitellogenin A2 estrogen response element) (dsDNA)
DNA 1: GTCCAAAGTCAGGTCACAGTGACCTGATCAAAGTT
DNA 2: AACTTTGATCAGGTCACTGTGACCTGACTTTGGAC
modifications: amine on the 5' G residue of one strand, covalently linked to optical fiber via GMBS
In the case of B1, the binding signal [1] is reported as 5.01 S/C ratio, the binding signal [2] is reported as 4.87 S/C ratio and the binding signal [3] is reported as 3.51 S/C ratio. For the same binder, the binding signal [4] was 4.44 S/C ratio.
